Numbering of substitutions follows the chain as printed.
B1: 单抗16L9 (antibody, V domains shown)
VH: EVQLVESGGGLIQPGGSLRLSCAASGFTVSSNYMSWVRQAPGKGLEWVSVIYSGGSTYYADSVKGRFTISRDNSENTLYLQMNSLRAEDTAVYYCARGEIQPYYYYGMDVWGQGTTVTVSS
VL: QSVLTQPPSASGSPGQSVTISCTGTSSDFGGYNSVSWYQQHPGKAPKLMIYEVSKRPSGVPDRFSGSKSGNTASLTVSGLQAEDEADYYCSSYAGSNNFDVFGTGTKVTVL
B2: 单抗3D13 (antibody, V domains shown)
VH: EVQLVESGGGLIQPGGSLRLSCAASGLTVSSNYMSWVRQAPGKGLEWVSVIYSGGSAFYADSVKGRFTISRDNSKNTLYLQMNSLRAEDTAVYYCARDLSSAGGMDVWGQGTTVTVSS
VL: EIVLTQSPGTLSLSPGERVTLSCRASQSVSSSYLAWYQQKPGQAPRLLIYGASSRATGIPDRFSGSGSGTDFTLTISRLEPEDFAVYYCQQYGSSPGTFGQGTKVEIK
B3: 单抗20E21 (antibody, V domains shown)
VH: B2 VH with I12F, W47C, A57T, F58Y, L99R, S100G, S101M, A102L, G103H
VL: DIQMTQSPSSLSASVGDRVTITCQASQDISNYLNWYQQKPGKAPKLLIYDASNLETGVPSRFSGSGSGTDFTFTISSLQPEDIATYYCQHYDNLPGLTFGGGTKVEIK
B4: 单抗4L12 (antibody, V domains shown)
VH: EVQLVESGGGLVQPGGSLRLSCAASGITVSSNYMNWVRQAPGRGLEWVSLLYSGGSTYYADSVKGRFTISRDNSKNTLYLQMNSLRAEDTAVYYCARDLITYGMDVWGQGTTVTVSS
VL: AIQLTQSPSSLSASVGDRVTITCRASQGISSYLAWYQQKPGKAPKLLIYAASTLQSGVPSRFSGSGSGTDFTLTISSLQPEDFATYYCQQLNSYPPLTFGGGTKVEIK
B5: 单抗12F5 (antibody, V domains shown)
VH: B4 VH with V12I, I27F, N35S, R43K, L50V, L51I, Y58F, T101D
VL: B4 VL with A1D, S10F, D70E, L97Y, G101Q, V105L
B6: 单抗10C2 (antibody, V domains shown)
VH: EVQLVESGGGLIQPGGSLRLSCAASGLTVSSNYMNWVRQAPGKGLEWVSVIYSGGSTYYADSVKGRFTISRDNSKNTLYLQMNSLRAEDTAVYYCARLLVATIRDFDYWGQGTLVTVSS
VL: not shown
B7: 单抗22H22 (antibody, V domains shown)
VH: B6 VH with G10A, N35T, L98G, L99Y, V100G, A101D, T102Y, I103E, R104N, D105Y
VL: AIQLTQSPSSLSASVGDRVTITCRASQGISSYLAWYQQKPGKAPKLLIYAASTLQGGVPSRFSGSGSGTDFTLTISSLQPEDFATYYCQHLWTFGQGTKVEIK

What follows are binders tested against SARS-CoV-2病毒的S1蛋白的RBD (SARS-CoV-2, UniProt P0DTC2 319-541) (assay: BLI (OctetRED96), antibody captured on AHC probe, RBD in solution from 100 nM in 3-fold dilutions, 1:1 global fit).
For B1, the Kd was 1.21 nM.
Binder B2 has a Kd of 4.17 nM.
Work on B3 yielded a Kd of 2.3 nM.
For B4, the Kd was 1.49 nM.
B5 was tested, and the Kd was 2.22 nM.
For B6, the Kd was 3.36 nM.
B7 gave a Kd of 5.07 nM.
